B1: Vascular endothelial growth factor receptor 2 (Mus musculus), P35918 (parent)
chain: MESKALLAVALWFCVETRAASVGLPGDFLHPPKLSTQKDILTILANTTLQITCRGQRDLDWLWPNAQRDSEERVLVTECGGGDSIFCKTLTIPRVVGNDTGAYKCSYRDVDIASTVYVYVRDYRSPFIASVSDQHGIVYITENKNKTVVIPCRGSISNLNVSLCARYPEKRFVPDGNRISWDSEIGFTLPSYMISYAGMVFCEAKINDETYQSIMYIVVVVGYRIYDVILSPPHEIELSAGEKLVLNCTARTELNVGLDFTWHSPPSKSHHKKIVNRDVKPFPGTVAKMFLSTLTIESVTKSDQGEYTCVASSGRMIKRNRTFVRVHTKPFIAFGSGMKSLVEATVGSQVRIPVKYLSYPAPDIKWYRNGRPIESNYTMIVGDELTIMEVTERDAGNYTVILTNPISMEKQSHMVSLVVNVPPQIGEKALISPMDSYQYGTMQTLTCTVYANPPLHHIQWYWQLEEACSYRPGQTSPYACKEWRHVEDFQGGNKIEVTKNQYALIEGKNKTVSTLVIQAANVSALYKCEAINKAGRGERVISFHVIRGPEITVQPAAQPTEQESVSLLCTADRNTFENLTWYKLGSQATSVHMGESLTPVCKNLDALWKLNGTMFSNSTNDILIVAFQNASLQDQGDYVCSAQDKKTKKRHCLVKQLIILERMAPMITGNLENQTTTIGETIEVTCPASGNPTPHITWFKDNETLVEDSGIVLRDGNRNLTIRRVRKEDGGLYTCQACNVLGCARAETLFIIEGAQEKTNLEVIILVGTAVIAMFFWLLLVIVLRTVKRANEGELKTGYLSIVMDPDELPLDERCERLPYDASKWEFPRDRLKLGKPLGRGAFGQVIEADAFGIDKTATCKTVAVKMLKEGATHSEHRALMSELKILIHIGHHLNVVNLLGACTKPGGPLMVIVEFCKFGNLSTYLRGKRNEFVPYKSKGARFRQGKDYVGELSVDLKRRLDSITSSQSSASSGFVEEKSLSDVEEEEASEELYKDFLTLEHLICYSFQVAKGMEFLASRKCIHRDLAARNILLSEKNVVKICDFGLARDIYKDPDYVRKGDARLPLKWMAPETIFDRVYTIQSDVWSFGVLLWEIFSLGASPYPGVKIDEEFCRRLKEGTRMRAPDYTTPEMYQTMLDCWHEDPNQRPSFSELVEHLGNLLQANAQQDGKDYIVLPMSETLSMEEDSGLSLPTSPVSCMEEEEVCDPKFHYDNTAGISHYLQNSKRKSRPVSVKTFEDIPLEEPEVKVIPDDSQTDSGMVLASEELKTLEDRNKLSPSFGGMMPSKSRESVASEGSNQTSGYQSGYHSDDTDTTVYSSDEAGLLKMVDAAVHADSGTTLRSPPV

Variants of: B1
Conditions: with pgfrb_human PDGFRB

With Y1052F;Y1057F as the variant, how does the “effect of a mutation on the interaction” value read?
The value was “disrupting interaction”.

Source: IntAct's records for PubMed 18997771
